According to IntAct's records for PubMed 22153076:

B1: SH3 domain-binding protein 2 (Mus musculus), Q06649 (parent)
chain: MAAEEMQWPVPMKAIGAQNLLTMPGGVAKAGYLHKKGGTQLQLLKWPLRFVIIHKRCIYYFKSSTSASPQGAFSLSGYNRVMRAAEETTSNNVFPFKIIHISKKHRTWFFSASSEDERKSWMAFVRREIGHFHEKKELPLDTSDSSSDTDSFYGAVERPIDISLSSYPMDNEDYEHEDEDDSYLEPDSPGPMKLEDALTYPPAYPPPPVPVPRKPAFSDLPRAHSFTSKSPSPLLPPPPPKRGLPDTGSAPEDAKDALGLRRVEPGLRVPATPRRMSDPPMSNVPTVPNLRKHPCFRDSVNPGLEPWTPGHGTSSVSSSTTMAVATSRNCDKLKSFHLSSRGPPTSEPPPVPANKPKFLKIAEEPSPREAAKFAPVPPVAPRPPVQKMPMPEATVRPAVLPRPENTPLPHLQRSPPDGQSFRGFSFEKARQPSQADTGEEDSDEDYEKVPLPNSVFVNTTESCEVERLFKATDPRGEPQDGLYCIRNSSTKSGKVLVVWDESSNKVRNYRIFEKDSKFYLEGEVLFASVGSMVEHYHTHVLPSHQSLLLRHPYGYAGPR

Variants of: B1
Details: with rn146_human RNF146, Q9NTX7
Chain of rn146_human RNF146, Q9NTX7 (Q9NTX7 whole entry): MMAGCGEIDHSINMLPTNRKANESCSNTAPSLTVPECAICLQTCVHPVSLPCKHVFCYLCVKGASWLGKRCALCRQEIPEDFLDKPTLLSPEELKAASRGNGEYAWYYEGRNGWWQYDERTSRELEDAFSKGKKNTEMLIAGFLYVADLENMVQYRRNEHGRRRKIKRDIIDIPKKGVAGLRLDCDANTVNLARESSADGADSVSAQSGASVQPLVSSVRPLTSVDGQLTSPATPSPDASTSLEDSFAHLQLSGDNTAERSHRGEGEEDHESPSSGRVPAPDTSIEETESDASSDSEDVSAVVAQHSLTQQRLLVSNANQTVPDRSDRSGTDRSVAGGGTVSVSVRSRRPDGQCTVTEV
MAAEEMQWPVPMKAIGAQNLLTMPGGVAKAGYLHKKGGTQLQLLKWPLRFVIIHKRCIYYFKSSTSASPQGAFSLSGYNRVMRAAEETTSNNVFPFKIIHISKKHRTWFFSASSEDERKSWMAFVRREIGHFHEKKELPLDTSDSSSDTDSFYGAVERPIDISLSSYPMDNEDYEHEDEDDSYLEPDSPGPMKLEDALTYPPAYPPPPVPVPRKPAFSDLPRAHSFTSKSPSPLLPPPPPKRGLPDTGSAPEDAKDALGLRRVEPGLRVPATPRRMSDPPMSNVPTVPNLRKHPCFRDSVNPGLEPWTPGHGTSSVSSSTTMAVATSRNCDKLKSFHLSSRGPPTSEPPPVPANKPKFLKIAEEPSPREAAKFAPVPPVAPRPPVQKMPMPEATVRPAVLPRPENTPLPHLQQSPPDGQSFRGFSFEKARQPSQADTGEEDSDEDYEKVPLPNSVFVNTTESCEVERLFKATDPRGEPQDGLYCIRNSSTKSGKVLVVWDESSNKVRNYRIFEKDSKFYLEGEVLFASVGSMVEHYHTHVLPSHQSLLLRHPYGYAGPR [R413Q] was tested, and the “effect of a mutation on the interaction” value was “decreasing interaction”.

Variants of: B1
Details: with tnks1_human TNKS
In the case of MAAEEMQWPVPMKAIGAQNLLTMPGGVAKAGYLHKKGGTQLQLLKWPLRFVIIHKRCIYYFKSSTSASPQGAFSLSGYNRVMRAAEETTSNNVFPFKIIHISKKHRTWFFSASSEDERKSWMAFVRREIGHFHEKKELPLDTSDSSSDTDSFYGAVERPIDISLSSYPMDNEDYEHEDEDDSYLEPDSPGPMKLEDALTYPPAYPPPPVPVPRKPAFSDLPRAHSFTSKSPSPLLPPPPPKRGLPDTGSAPEDAKDALGLRRVEPGLRVPATPRRMSDPPMSNVPTVPNLRKHPCFRDSVNPGLEPWTPGHGTSSVSSSTTMAVATSRNCDKLKSFHLSSRGPPTSEPPPVPANKPKFLKIAEEPSPREAAKFAPVPPVAPRPPVQKMPMPEATVRPAVLPRPENTPLPHLQQSPPDGQSFRGFSFEKARQPSQADTGEEDSDEDYEKVPLPNSVFVNTTESCEVERLFKATDPRGEPQDGLYCIRNSSTKSGKVLVVWDESSNKVRNYRIFEKDSKFYLEGEVLFASVGSMVEHYHTHVLPSHQSLLLRHPYGYAGPR [R413Q], the “effect of a mutation on the interaction” value is reported as “disrupting interaction”.
